According to patent US20210107983A1 (Boehringer Ingelheim, published 2021):
Substitutions are numbered along the chain they refer to.

T1: human B7H6 on HCT-15 cells (human, UniProt Q68D85 25-454)
T1 sequence (looked up): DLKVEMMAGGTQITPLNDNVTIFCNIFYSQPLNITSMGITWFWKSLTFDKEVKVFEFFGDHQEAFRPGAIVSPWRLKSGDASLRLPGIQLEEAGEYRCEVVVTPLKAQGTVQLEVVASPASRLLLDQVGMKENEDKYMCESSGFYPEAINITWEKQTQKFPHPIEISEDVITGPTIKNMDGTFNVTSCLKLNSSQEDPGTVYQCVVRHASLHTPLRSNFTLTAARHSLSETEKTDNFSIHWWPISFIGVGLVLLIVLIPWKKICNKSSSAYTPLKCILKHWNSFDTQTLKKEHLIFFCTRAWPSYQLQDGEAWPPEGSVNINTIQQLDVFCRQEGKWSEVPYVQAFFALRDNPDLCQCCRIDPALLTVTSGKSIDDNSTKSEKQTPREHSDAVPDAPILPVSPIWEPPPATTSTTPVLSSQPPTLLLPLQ

T2: Cyno B7H6-His (cynomolgus monkey)
T2 construct: also called CyB7H6; cyB7-H6
T2 chain: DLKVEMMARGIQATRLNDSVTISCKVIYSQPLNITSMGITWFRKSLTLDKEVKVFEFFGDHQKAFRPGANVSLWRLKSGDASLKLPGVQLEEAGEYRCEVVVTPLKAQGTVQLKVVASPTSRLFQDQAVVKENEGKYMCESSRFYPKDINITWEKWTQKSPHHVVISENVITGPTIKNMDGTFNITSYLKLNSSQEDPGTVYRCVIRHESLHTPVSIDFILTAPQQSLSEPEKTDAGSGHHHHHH

B1: B7H6#11/CD3#1 (bispecific antibody)
chain 1: not shown
chain 2: EAVVTQEPSLTVSPGGTVTLTCRSSTGAVTTSNYANWVQEKPGQLPRGLIGGTNKRAPWVPARFSGSLLGGKAALTLSGAQPEDEAEYFCALWYSNLWVFGGGTKLTVLGQPKAAPSVTLFPPSSEELQANKATLVCLISDFYPGAVKVAWKADGSPVNTGVETTTPSKQSNNKYAASSYLSLTPEQWKSHRSYSCQVTHEGSTVEKTVAPAECSGGGGSEGKSSGSGSESKSTEGKSSGSGSESKSTGGGGSEVQLVESGGGLVQPGGSLKLSCAASGFTFNTYAMNWVRQAPGKGLEWVARIRSKYNNYATYYADSVKDRFTISRDDSKNTAYLQMNNLKTEDTAVYYCVRHGNFGNSYVSWFAYWGQGTLVTVSAASTKGPSVFPLAPSSKSTSGGTAALGCLVKDYFPEPVTVSWNSGALTSGVHTFPAVLQSSGLYSLSSVVTVPSSSLGTQTYICNVNHKPSNTKVDKRVEPKSCDKTHTCPPCPAPEAAGGPSVFLFPPKPKDTLMISRTPEVTCVVVDVSHEDPEVKFNWYVDGVEVHNAKTKPREEQYNSTYRVVSVLTVLHQDWLNGKEYKCKVSNKALPAPIEKTISKAKGQPREPQVYTLPPSREEMTKNQVSLSCAVKGFYPSDIAVEWESNGQPENNYKTTPPVLDSDGSFFLVSKLTVDKSRWQQGNVFSCSVMHEALHNRFTQKSLSLSPG
notes: scFab-Fc heterodimer, one B7H6 chain and one CD3 chain
B2: B7H6#9/CD3#1 (bispecific antibody, human IgG1, kappa, lambda, L234A L235A)
chain 1: DIVLTQSPVSLAVSLGQRATISCRASESVDNFGVSFMNWFQQKPGQPPKLLIYAASNQGSGVPARFSGSGSGTDFSLNIHPLEEDDTAMYFCQQSKEVPWTFGGGTRLEIKRTVAAPSVFIFPPSDEQLKSGTASVVCLLNNFYPREAKVQWKVDNALQSGNSQESVTEQDSKDSTYSLSSTLTLSKADYEKHKVYACEVTHQGLSSPVTKSFNRGECGGGGSEGKSSGSGSESKSTEGKSSGSGSESKSTGGGGSQVQLQQPGAEMVRPGSSVKLSCKASDYTFTHYWIHWVKQRPLEGLEWIGIIGPSDNEIHYNQDFKDKATLTVDKSSNTAYLHLNSLTSEDSAVYYCARQIISMVVGTEYFDVWGTGTTVTVSSASTKGPSVFPLAPSSKSTSGGTAALGCLVKDYFPEPVTVSWNSGALTSGVHTFPAVLQSSGLYSLSSVVTVPSSSLGTQTYICNVNHKPSNTKVDKRVEPKSCDKTHTCPPCPAPEAAGGPSVFLFPPKPKDTLMISRTPEVTCVVVDVSHEDPEVKFNWYVDGVEVHNAKTKPREEQYNSTYRVVSVLTVLHQDWLNGKEYKCKVSNKALPAPIEKTISKAKGQPREPQVYTLPPSREEMTKNQVSLWCLVKGFYPSDIAVEWESNGQPENNYKTTPPVLDSDGSFFLYSKLTVDKSRWQQGNVFSCSVMHEALHNHYTQKSLSLSPG
chain 2: B1 chain 2
notes: as for B1
B3: B7H6#14/CD3#2 (bispecific antibody, human IgG1, kappa, L234A L235A)
chain 1: DIQMTQSPSSLSASVGDRVTITCKASQNVGKYVAWYQQKPGKAPKSLIYSASNRYDGVPSRFSGSGSGTDFTLTISSLQPEDFATYFCQQYISYPLTFGAGTKLEIKRTVAAPSVFIFPPSDEQLKSGTASVVCLLNNFYPREAKVQWKVDNALQSGNSQESVTEQDSKDSTYSLSSTLTLSKADYEKHKVYACEVTHQGLSSPVTKSFNRGECGGGGSEGKSSGSGSESKSTEGKSSGSGSESKSTGGGGSQVQLVQSGAEVKKPGASVKVSCKASGYTFTNYWMNWMKQAPGQGLEWIGGIYLNGDSTDYNEKFKGKVTMTVDTSTSTVYMELSSLRSEDTAVYYCTRRGDYFGDFWGQGTLVTVSSASTKGPSVFPLAPSSKSTSGGTAALGCLVKDYFPEPVTVSWNSGALTSGVHTFPAVLQSSGLYSLSSVVTVPSSSLGTQTYICNVNHKPSNTKVDKRVEPKSCDKTHTCPPCPAPEAAGGPSVFLFPPKPKDTLMISRTPEVTCVVVDVSHEDPEVKFNWYVDGVEVHNAKTKPREEQYNSTYRVVSVLTVLHQDWLNGKEYKCKVSNKALPAPIEKTISKAKGQPREPQVYTLPPSREEMTKNQVSLWCLVKGFYPSDIAVEWESNGQPENNYKTTPPVLDSDGSFFLYSKLTVDKSRWQQGNVFSCSVMHEALHNHYTQKSLSLSPG
chain 2: not shown
notes: scFab-Fc heterodimer
B4: B7H6#14/CD3#4 (bispecific antibody, human IgG1, kappa, L234A L235A)
chain 1: B3 chain 1
chain 2: not shown
notes: scFab-Fc heterodimer
B5: B7H6#23/CD3#3 (bispecific antibody, human IgG1, kappa, L234A L235A)
chain 1: B3 chain 1 with G57A, N283S, N306S, D308E
chain 2: not shown
notes: scFab-Fc heterodimer
B6: B7H6#23/CD3#4 (bispecific antibody, human IgG1, kappa, L234A L235A)
chain 1: B3 chain 1 with G57A, N283S, N306S, D308E
chain 2: not shown
notes: scFab-Fc heterodimer
B7: B7H6#23/CD3#5 (bispecific antibody, human IgG1, kappa, L234A L235A)
chain 1: B3 chain 1 with G57A, N283S, N306S, D308E
chain 2: not shown
notes: scFab-Fc heterodimer

Each binder was assayed against T1, human B7H6 on HCT-15 cells (assay: cell-based or functional assay).
For B1, the “EC50 [nM], 72 hour cytotoxicity assay, non-stimulated T-cells (Donor #1) as effector cells, HCT-15 cells as target cells” value was 0.77 nM. In the case of B2, the “EC50 [nM], 72 hour cytotoxicity assay, non-stimulated T-cells (Donor #1) as effector cells, HCT-15 cells as target cells” value is reported as 0.44 nM.

Biological target: T2, Cyno B7H6-His
Experiment: ratio of SPR KDs cyno/human
With B3 the “cy/hu B7-H6” value was 0.9. With B4 the “cy/hu B7-H6” value was 0.8. B5 was tested, and the “cy/hu B7-H6” value was 0.9. For B6, the “cy/hu B7-H6” value was 1. In the case of B7, the “cy/hu B7-H6” value is reported as 0.9.

Each binder was assayed against T3, Cyno CD3 E+G HuFc-6xHis (cynomolgus monkey) (assay: ratio of SPR KDs cyno/human).
T3 construct: also called CyCD3E+G-hFc; cyCD3
T3 sequence (chain, as listed by the source limits assumed): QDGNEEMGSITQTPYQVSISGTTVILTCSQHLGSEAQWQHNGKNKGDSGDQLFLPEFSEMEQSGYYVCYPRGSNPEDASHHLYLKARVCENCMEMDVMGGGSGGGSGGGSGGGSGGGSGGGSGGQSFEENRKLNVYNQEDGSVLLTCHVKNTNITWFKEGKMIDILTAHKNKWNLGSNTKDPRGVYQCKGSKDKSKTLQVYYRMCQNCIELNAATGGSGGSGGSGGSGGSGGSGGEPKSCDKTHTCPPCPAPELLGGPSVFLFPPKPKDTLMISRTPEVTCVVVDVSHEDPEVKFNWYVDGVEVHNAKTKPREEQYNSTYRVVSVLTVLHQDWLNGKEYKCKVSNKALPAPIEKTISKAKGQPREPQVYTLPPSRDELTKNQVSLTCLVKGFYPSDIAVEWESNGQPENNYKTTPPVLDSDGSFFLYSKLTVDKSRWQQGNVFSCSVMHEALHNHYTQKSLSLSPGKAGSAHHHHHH
B3 was tested, and the “cy/hu CD3” value was 1. For B4, the “cy/hu CD3” value was 1.1. For B5, the “cy/hu CD3” value was 0.9. In the case of B6, the “cy/hu CD3” value is reported as 0.9. For B7, the “cy/hu CD3” value was 1.3.

These binders were tested against T4, chicken egg white lysozyme (chicken, UniProt P00698 19-147) (assay: SPR, 1 µM binder over immobilized lysozyme).
T4 construct: unrelated positively charged protein, amine-coupled to the chip; also called Lysozyme (positive)
T4 sequence (P00698 19-147): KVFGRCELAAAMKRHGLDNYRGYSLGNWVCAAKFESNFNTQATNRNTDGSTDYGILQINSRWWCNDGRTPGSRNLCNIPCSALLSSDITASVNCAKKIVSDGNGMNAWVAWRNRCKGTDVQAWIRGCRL
How it was run: (§1)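 Non-specific binding tested with samples at 1 μM in HBS-EP at 25 °C, 5 μL/min, over lysozyme or trypsin inhibitor amine-coupled to CM5 chip (3000–5000 RU). Association 10 min, dissociation 15 min.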
For B3, the “Non-specific binding (RU)” value was 11.2 RU. With B4 the “Non-specific binding (RU)” value was 8.8 RU. For B5, the “Non-specific binding (RU)” value was 18.9 RU. With B6 the “Non-specific binding (RU)” value was 6.8 RU. With B7 the “Non-specific binding (RU)” value was 15 RU.

What follows are binders tested against T5, Human CD3 E+G HuFc-6xHis (human) (assay: SPR, CD3E+G-hFc immobilized, binder analyte).
T5 construct: also called HuCD3E+G-hFc; huCD3
T5 sequence (chain, as listed by the source limits assumed): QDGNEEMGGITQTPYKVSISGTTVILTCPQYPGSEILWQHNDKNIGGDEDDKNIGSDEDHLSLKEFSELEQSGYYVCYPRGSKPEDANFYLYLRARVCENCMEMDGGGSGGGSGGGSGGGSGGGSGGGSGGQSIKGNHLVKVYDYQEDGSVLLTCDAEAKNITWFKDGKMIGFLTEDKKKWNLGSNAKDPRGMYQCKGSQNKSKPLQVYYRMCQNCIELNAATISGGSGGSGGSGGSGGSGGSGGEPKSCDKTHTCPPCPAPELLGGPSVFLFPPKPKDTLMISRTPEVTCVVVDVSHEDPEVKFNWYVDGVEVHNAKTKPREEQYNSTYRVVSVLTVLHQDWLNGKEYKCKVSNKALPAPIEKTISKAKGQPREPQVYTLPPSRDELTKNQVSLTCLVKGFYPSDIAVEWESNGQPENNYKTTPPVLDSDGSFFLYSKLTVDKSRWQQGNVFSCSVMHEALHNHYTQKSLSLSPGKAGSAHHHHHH
How it was run: (§2)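 On a ProteOn XPR36, human and cyno CD3E+G-hFc were amine-coupled to a GLM chip at 0.4, 0.2 and 0.1 μg/mL in 10 mM acetate pH 4.5. B7H6/CD3 binding protein (0–100 nM) flowed in HBS-EP+ at 30 μL/min, with 300 s association and 600 s dissociation. Interspot and blank responses were subtracted.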
B3 showed a Kd of 16.9 nM. B4 gave a Kd of 7.6 nM. For B5, the Kd was 13.8 nM. B6 gave a Kd of 3.8 nM. With B7 the Kd was 2.8 nM.

What follows are binders tested against T3, Cyno CD3 E+G HuFc-6xHis (assay: SPR, CD3E+G-hFc immobilized, binder analyte).
How it was run: as §2
B3 gave a Kd of 17.7 nM. In the case of B4, the Kd is reported as 8.5 nM. B5 was tested, and the Kd was 11.9 nM. With B6 the Kd was 3.6 nM. For B7, the Kd was 3.7 nM.

Biological target: T2, Cyno B7H6-His
Experiment: SPR, binder captured on Protein A/G, B7H6 analyte
How it was run: (§3)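 B7H6/CD3 binder captured (~700 RU) on a Protein A/G CM5 surface in HBS-EP+. Human or cyno B7H6 injected at 0–100 nM and human B7H1 at 0 nM and 1 μM, 300 s association and 1200 s dissociation. Data double-referenced against the reference flow cell and blank.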
Binder B3 has a Kd of 1 nM. Work on B4 yielded a Kd of 1.1 nM. B5 gave a Kd of 1.9 nM. Binder B6 has a Kd of 1.7 nM. B7 showed a Kd of 1.9 nM.

Each binder was assayed against T6, Human B7H1 (human, UniProt Q9NZQ7 20-239) (assay: SPR, binder captured on Protein A/G, HuB7H1 analyte).
T6 construct: also called HuB7H1; huB7-H1
T6 sequence (Q9NZQ7 other isoform, or with tags, fused parts or gaps limits assumed): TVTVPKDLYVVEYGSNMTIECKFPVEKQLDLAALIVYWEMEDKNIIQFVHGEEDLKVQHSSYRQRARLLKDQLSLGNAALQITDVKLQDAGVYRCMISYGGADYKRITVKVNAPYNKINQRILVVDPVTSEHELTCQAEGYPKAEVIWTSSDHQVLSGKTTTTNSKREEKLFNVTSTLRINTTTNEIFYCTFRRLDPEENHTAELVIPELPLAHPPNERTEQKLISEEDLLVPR
How it was run: as §3
B3: no binding (tested: 1 µM). B4: no binding (tested: 1 µM). B5: no binding (tested: 1 µM). B6: no binding (tested: 1 µM). B7: no binding (tested: 1 µM).

These binders were tested against T7, trypsin inhibitor from Glycine max soybean (Glycine max (soybean)) (assay: SPR, 1 µM binder over immobilized trypsin inhibitor).
T7 construct: unrelated negatively charged protein, amine-coupled to the chip
T7 sequence (P01070 25-205): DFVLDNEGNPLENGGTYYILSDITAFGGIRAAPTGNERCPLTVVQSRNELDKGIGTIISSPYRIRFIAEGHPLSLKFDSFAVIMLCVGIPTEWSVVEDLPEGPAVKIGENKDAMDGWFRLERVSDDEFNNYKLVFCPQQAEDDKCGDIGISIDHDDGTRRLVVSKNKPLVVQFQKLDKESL
How it was run: as §1
In the case of B3, the “Non-specific binding (RU)” value is reported as 12.2 RU. In the case of B4, the “Non-specific binding (RU)” value is reported as 22.6 RU. For B5, the “Non-specific binding (RU)” value was 38.7 RU. For B6, the “Non-specific binding (RU)” value was 20.7 RU. With B7 the “Non-specific binding (RU)” value was 115 RU.

These binders were tested against T8, CD3 on human T-cells (human, UniProt P07766;P09693) (assay: flow cytometry on purified human T-cells, PE anti-human secondary antibody).
T8 construct: endogenous, on the surface of purified T-cells; also called human T-cells expressing CD3
T8 sequence (P07766 23-207, chain 1 of 2): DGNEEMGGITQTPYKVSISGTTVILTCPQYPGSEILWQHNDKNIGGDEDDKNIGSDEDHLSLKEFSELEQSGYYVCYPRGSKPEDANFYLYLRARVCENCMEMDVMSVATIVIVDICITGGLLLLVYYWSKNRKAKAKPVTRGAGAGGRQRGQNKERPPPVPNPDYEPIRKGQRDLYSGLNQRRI
T8 sequence (P09693 23-182, chain 2 of 2): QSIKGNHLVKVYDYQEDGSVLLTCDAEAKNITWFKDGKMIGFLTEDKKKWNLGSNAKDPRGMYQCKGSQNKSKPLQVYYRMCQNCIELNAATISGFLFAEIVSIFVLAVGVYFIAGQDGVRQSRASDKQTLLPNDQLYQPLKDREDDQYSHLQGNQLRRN
Procedure: T-cells were isolated by negative selection using the Pan T Cell Isolation Kit II (Miltenyi Biotec #130-091-156). In brief, cells were resuspended in 40 μl buffer PBS/0.5% BSA (Gibco ref #041-94553 M)/2 mM EDTA (Invitrogen ref #15575-038) per 10 Mio cells and incubated with 10 μl of Biotin-Antibody cocktail per 10 Mio cells for 5 min at 4° C. Subsequently, 30 μl buffer and 20 μl anti-biotin MACS® MicroBeds/10 million cells were added and incubated for 10 min at 4° C. Subsequently the mixture was placed in a pre-rinsed 25LS column (Miltenyi Biotec #130-042-401) in the magnetic field of suitable MACS® microbeads separator (Miltenyi Biotec). Flow-through was collected and washed in assay medium.
T-cells were stained with increasing concentrations of two-step purified B7H6/CD3 binding proteins in FACS buffer (PBS/0.5% BSA/0.05% sodium azide). Bound molecules were detected with PE-conjugated anti-human secondary antibody (Sigma-Aldrich, #P8047).
B3: binds. B4: binds. B5: binds. B6: binds. B7: binds.

Each binder was assayed against T9, Fc-His-tagged human B7H6 ECD (human) (assay: ELISA, plate coated with Fc-His-tagged human B7H6 ECD, anti-human IgG F(ab')2-peroxidase, TMB).
T9 construct: also called huB7H6-ECD-Fc-His; recombinant human B7H6 ECD
Procedure: To assess binding of B7H6/CD3 binding proteins to recombinant human Fc-His-tagged B7H6 ECD and human Fc-His-tagged Ala-mutated B7H6 extracellular proteins as described in Example 3, MediSorp™ plates (Nunc, 467320) were coated with […] recombinant proteins overnight at 4° C. The next day, plates were blocked with 0.5% bovine serum albumin (BSA) in phosphate buffered saline (PBS) for 1 hour at room temperature (RT). Subsequently plates were washed with […] containing 0.05% TWEEN®20 viscous liquid and B7H6/CD3 binding proteins were incubated at concentrations ranging from 0.00001 to 10 μg/ml. After an additional washing step, bound B7H6/CD3 binding proteins were detected by a peroxidase conjugated goat anti-human IgG F(ab′)₂-specific secondary antibody (Jackson Immunoresearch) and visualized by TMB substrate solution (Bender Med Systems).
B1 was tested, and the “EC50 (read off the curve)” value was about 0.05 µg/mL. With B2 the “EC50 (read off the curve)” value was about 0.05 µg/mL.
